Source: US20230218739A1 (SICHUAN CLOVER BIOPHARMACEUTICALS, published 2023)

Target: Rabies G-Trimer (CTN-1 Strain) (ectodomain of rabies CTN-1 strain G protein fused in frame to Trimer-Tag) (Rabies virus CTN-1 strain)

B1: NGFR-Fc (nerve growth factor receptor NGFR (p75) fused to Fc) (Fc fusion)
chain: KEACPTGLYTHSGECCKACNLGEGVAQPCGANQTVCEPCLDSVTFSDVVSATEPCKPCTECVGLQSMSAPCVEADDAVCRCAYGYYQDETTGRCEACRVCEAGSGLVFSCQDKQNTVCEECPDGTYSDEANHVDPCLPCTVCEDTERQLRECTRWADAECEEIPGRWITRSTPPEGSDSTAPSTQEPEAPPEQDLIASTVAGVVTTVMGSSQPVVTRGTTDN
Kd: 2.92 nM | koff: 2.39e-05 s⁻¹ | kon: 8170 M⁻¹ s⁻¹
